Laboratory results published in PMC7689449.

Tests used:
[1] = target: Sulfolobus islandicus rod-shaped virus 3 (SIRV3) anti-CRISPR protein AcrID1 (C-terminal His6) (Sulfolobus islandicus rod-shaped virus 3 (SIRV3)); test: crystal structure; Se-Met Cas10d and AcrID1 mixed 1:2 (Cas10d:AcrID1), 75 °C for 1 min, complex isolated on Superdex 200 (30 mM Hepes-NaOH pH 7.5, 150 mM NaCl, 5 mM β-ME); crystals in 0.1 M Hepes pH 7.5, 4% PEG 8000, 5% ethylene glycol, 19 °C; SAD, 3.5 Å
[2] = target: Sulfolobus islandicus type I-D Cas10d large subunit (Se-Met substituted, C-terminal His6) (Sulfolobus islandicus); test: as above

“Sulfolobus islandicus rod-shaped virus 3 (SIRV3) anti-CRISPR protein AcrID1 (C-terminal His6) (natural protein)” showed a stoichiometry N [1] of 2 and a stoichiometry N (AcrID1 per Cas10d) [2] of 2.
